Assay results taken from patent publication US20260002137.

What was measured:
Experiment in all cases: cell_activity
[1] = system: sCre (truncated Cre, residues 19-343) (Escherichia phage P1?); conditions: 293T; by GFP MFI; similar % GFP+ cells as full-length
[2] = system: ProCre-LRGAG (cyclized sCre with AVP site) (Escherichia phage P1?); conditions: 293T; without AVP 4.5±0.6%; with AVP 40±1%; FLEx module with mCherry removed
[3] = system: ProCreHRV (cyclized sCre with LEVLFQGP site) (Escherichia phage P1?); conditions: 293T; without HRV 3C protease 5±1%; with HRVp 49±4%; FLEx.2 module
[4] = system: cysCreTEV (cyclized sCre with ENLYFQS site) (Escherichia phage P1?); conditions: 293T; uncleaved (mock); with TEVp GFP MFI similar to non-cyclized sCre

FLEx DiO cassette with loxP and lox2272 pairs
Cre recombination activity (GFP reporter MFI) (% of full-length Cre) [1]: 77 | activity [2]: 4.5 % GFP+ cells | activity [3]: 5 % GFP+ cells | activity [4]: 3.2 % GFP+ cells
